Biological target: EGFP-LOV2-OPTN_((412-520)) (Avena sativa | not stated) (UniProt Q96CV9)
Experiment: SEC

EGFP-LOV2-OPTN_((412-520)) (from UniProt Q96CV9 412-520) (designed binder)
stoichiometry N: 2

From publication doi:10.1101/068965
